Molecular target: MR1-restricted antigen synthesized by S. Typhimurium and highly abundant in that microbe peptide on MR1 (human)
Experiment: T cell clone or line
[1] = chains alpha TRAV1-2 TRAJ33 CDR3:beta TRBV3-1 TRBJ2-2 CDR3

B1: 450A9 (peptide)
chain 1: CAVRDSNYQLI
chain 2: CSAREVEGTYEQY
**Q.** For B1, which geometric MFI (chains alpha TRAV1-2 TRAJ33 CDR3:beta TRBV20-1 TRBJ2-7 CDR3) is on record?
**A.** 2030

B2: D0033A6 (peptide)
chain 1: CAVVDSNYQLI
chain 2: CASSHSSGTGGNEQF
**Q.** How did the geometric MFI (chains alpha TRAV1-2 TRAJ33 CDR3:beta TRBV4-2 TRBJ2-1 CDR3) turn out when B2 was run?
**A.** 2620

B3: 571F3-2 (peptide)
chain 1: CAVRDSNYQLI
chain 2: CASSEASGGTDTQY
**Q.** B3 was tested. Which geometric MFI (chains alpha TRAV1-2 TRAJ33 CDR3:beta TRBV6-4 TRBJ2-3 CDR3) did it give?
**A.** 2760

B4: 427D8-2 (peptide)
chain 1: CAVMDSNYQLI
chain 2: CASSLLRQGTEKLF
**Q.** Which geometric MFI (chains alpha TRAV1-2 TRAJ33 CDR3:beta TRBV5-1 TRBJ1-4 CDR3) does the source give for B4 here?
**A.** 3440

B5: D0033A2 (peptide)
chain 1: CAVTDSNYQLI
chain 2: CASSQAETELNTGELF
**Q.** Which geometric MFI [1] does the source give for B5 here?
**A.** 2480

B6: 450B9 (peptide)
chain 1: CAVMDSNYQLI
chain 2: CASTPSGEFSEAF
**Q.** For B6, which geometric MFI (chains alpha TRAV1-2 TRAJ33 CDR3:beta TRBV6-1 TRBJ1-1 CDR3) is on record?
**A.** 2520

B7: 403A9 (peptide)
chain 1: CAVVDSNYQLI
chain 2: CSARDGGEAYNEQF
**Q.** B7 was tested. Which geometric MFI (chains alpha TRAV1-2 TRAJ33 CDR3:beta TRBV20-1 TRBJ2-1 CDR3) did it give?
**A.** 1600

B8: D0033A10 (peptide)
chain 1: CAVTDSNYQLI
chain 2: CASSSGLEVTGELF
**Q.** With B8 as the binder, how does the geometric MFI [1] read?
**A.** 2130
